Laboratory results: US20130177924A1

Assays:
[1] = target: blocked scFv having an HRV-3C protease substrate in the peptide linker (H6-MG VH / HL1-TO1 VL), pept; assay: cell-based or functional assay
[2] = target: blocked scFv having a caspase 3 protease substrate in the peptide linker (H6-MG VH / HL1-TO1 VL), peptide construct SEQ ID NO:51, displayed on yeast; assay: cell-based or functional assay

| Substance | time to complete activation of MG fluorescence, 10^6 yeast cells with 1 unit of HRV-3C protease at 25 C [1] [min] | time to complete activation of MG fluorescence, 10^6 yeast cells with 1 unit of caspase 3 protease at 25 C [2] [min] |
| --- | --- | --- |
| Human Rhinovirus 3C protease (enzyme) | 30 | – |
| caspase 3 protease (enzyme) | – | 30 |
